Substitutions are numbered along the chain they refer to.
T1: Cascade- (crRNA-free Cse1-Cse2-Cas7-Cas5-Cas6e) (Escherichia coli (K12; expressed in …, UniProt Q46901;P76632;Q46899;Q46898;Q46897 1-502;1-160;1-363;1-224;1-199)
T1 sequence 1: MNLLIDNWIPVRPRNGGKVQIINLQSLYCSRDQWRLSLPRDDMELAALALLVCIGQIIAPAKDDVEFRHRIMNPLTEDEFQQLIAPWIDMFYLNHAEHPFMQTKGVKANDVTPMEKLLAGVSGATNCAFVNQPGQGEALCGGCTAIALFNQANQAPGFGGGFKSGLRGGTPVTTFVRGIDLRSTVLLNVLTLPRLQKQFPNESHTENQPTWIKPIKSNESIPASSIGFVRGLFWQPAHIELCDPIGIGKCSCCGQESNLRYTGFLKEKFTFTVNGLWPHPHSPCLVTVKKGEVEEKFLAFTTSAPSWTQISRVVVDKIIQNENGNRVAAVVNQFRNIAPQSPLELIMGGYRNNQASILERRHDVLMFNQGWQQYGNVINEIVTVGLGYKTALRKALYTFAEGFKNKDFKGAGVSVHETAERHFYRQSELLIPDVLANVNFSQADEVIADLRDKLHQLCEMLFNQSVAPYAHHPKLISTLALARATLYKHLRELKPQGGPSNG
T1 sequence 2: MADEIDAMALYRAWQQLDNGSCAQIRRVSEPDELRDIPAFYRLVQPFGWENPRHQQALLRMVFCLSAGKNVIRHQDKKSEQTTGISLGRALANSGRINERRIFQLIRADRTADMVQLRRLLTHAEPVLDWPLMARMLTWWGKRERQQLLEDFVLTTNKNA
T1 sequence 3: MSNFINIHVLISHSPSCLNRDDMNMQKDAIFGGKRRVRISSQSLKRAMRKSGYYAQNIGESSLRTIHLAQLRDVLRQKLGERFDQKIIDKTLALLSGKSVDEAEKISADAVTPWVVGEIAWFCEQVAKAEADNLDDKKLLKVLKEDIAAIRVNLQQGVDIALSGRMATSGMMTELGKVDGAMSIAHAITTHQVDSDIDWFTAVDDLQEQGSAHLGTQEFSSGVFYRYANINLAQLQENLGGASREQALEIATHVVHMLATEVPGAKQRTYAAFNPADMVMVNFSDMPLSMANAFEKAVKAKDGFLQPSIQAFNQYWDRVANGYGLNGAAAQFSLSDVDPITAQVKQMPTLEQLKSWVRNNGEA
T1 sequence 4: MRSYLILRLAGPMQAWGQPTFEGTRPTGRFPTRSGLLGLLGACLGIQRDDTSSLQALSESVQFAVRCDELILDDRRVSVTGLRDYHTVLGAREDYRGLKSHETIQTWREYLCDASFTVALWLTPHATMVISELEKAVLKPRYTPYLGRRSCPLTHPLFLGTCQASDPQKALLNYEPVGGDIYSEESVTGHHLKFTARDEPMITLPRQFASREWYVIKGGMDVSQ
T1 sequence 5: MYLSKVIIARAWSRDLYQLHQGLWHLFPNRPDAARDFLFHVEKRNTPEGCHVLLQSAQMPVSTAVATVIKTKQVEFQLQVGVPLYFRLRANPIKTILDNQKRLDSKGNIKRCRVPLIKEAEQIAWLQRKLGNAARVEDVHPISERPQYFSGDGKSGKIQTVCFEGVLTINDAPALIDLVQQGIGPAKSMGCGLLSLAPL

B1: crRNA2 (-8/+21), no cyclic phosphate (structured_RNA)
RNA: AUAAACCGCUGUCUUUCGCUGCUGAGGGUGACGAUCCGCCGAGUUCCCCGCGCCAGCGGGG
modifications: no 2',3'-cyclic phosphate
B2: crRNA2 + g8 dsDNA (mixed)
RNA: B1 RNA
DNA 1: CAGGGAGTTAAAGGCCGCTTTTGCGGGATCGTCACCCTCAGCAGCGAAAGACAGCATCGGAACGAGGGTAGCAACGGCT
DNA 2: AGCCGTTGCTACCCTCGTTCCGATGCTGTCTTTCGCTGCTGAGGGTGACGATCCCGCAAAAGCGGCCTTTAACTCCCTG
modifications: no 2',3'-cyclic phosphate on crRNA
B3: crRNA7 (-7/+5) + g8 dsDNA (mixed)
RNA: UAAACCGCUGUCUUUCGCUGCUGAGGGUGACGAUCCGCCGAGUU
DNA 1: B2 DNA 1
DNA 2: B2 DNA 2
B4: crRNA7 (-8/+1C) + g8 dsDNA (mixed)
RNA: AUAAACCGCUGUCUUUCGCUGCUGAGGGUGACGAUCCGCCC
DNA 1: B2 DNA 1
DNA 2: B2 DNA 2
B5: poly-A handle crRNA9 + g8 dsDNA (mixed)
RNA: AAAAAAAACUGUCUUUCGCUGCUGAGGGUGACGAUCCGCCGAGUU
DNA 1: B2 DNA 1
DNA 2: B2 DNA 2
B6: crRNA7 (-8/+1A) + g8 dsDNA (mixed)
RNA: B4 RNA with C41A
DNA 1: B2 DNA 1
DNA 2: B2 DNA 2
B7: crRNA7 (-8/+1G) + g8 dsDNA (mixed)
RNA: B4 RNA with C41G
DNA 1: B2 DNA 1
DNA 2: B2 DNA 2
B8: crRNA7 (-8/+1U) + g8 dsDNA (mixed)
RNA: B4 RNA with C41U
DNA 1: B2 DNA 1
DNA 2: B2 DNA 2
B9: crRNA7 (-6/+5) + g8 dsDNA (mixed)
RNA: AAACCGCUGUCUUUCGCUGCUGAGGGUGACGAUCCGCCGAGUU
DNA 1: B2 DNA 1
DNA 2: B2 DNA 2
B10: poly-C handle crRNA + g8 dsDNA (mixed)
RNA: CCCCCCCCCUGUCUUUCGCUGCUGAGGGUGACGAUCCGCCGAGUU
DNA 1: B2 DNA 1
DNA 2: B2 DNA 2
B11: crRNA11 (-8/+18) (ssRNA)
RNA: AUAAACCGCUGUCUUUCGCUGCUGAGGGUGACGAUCCGCCGAGUUCCCCGCGCCAGCG
B12: crRNA13 (-8/+9) (ssRNA)
RNA: AUAAACCGCUGUCUUUCGCUGCUGAGGGUGACGAUCCGCCGAGUUCCCC
B13: crRNA12 (-8/+11) (ssRNA)
RNA: AUAAACCGCUGUCUUUCGCUGCUGAGGGUGACGAUCCGCCGAGUUCCCCGC

Biological target: T1, Cascade- (crRNA-free …)
Experiment: EMSA; EMSA: 20 mM Tris-HCl pH 8, 20 mM NaCl, 10 nM 32P probe, 30 min at 30 or 37 C, 6% native PAGE; loading 10 min at 30 C with crRNA (0.5 uM in Fig 3). Kd values are printed only in Fig 5A (not in the material)
Settings: protein: recombinant; tags: N-terminal 6His on Cse1 (CasA); copies: 1;2;6;1;1; label: 5'-32P; 3' handle hairpin

Q: Does B1 bind?
A: binds

Same assay, conditions: protein: recombinant; tags: N-terminal 6His on Cse1 (CasA); copies: 1;2;6;1;1; label: DNA 5'-32P; guide + blunt duplex

Q: Does B2 bind?
A: binds

Q: Does B3 bind?
A: no binding

Q: Does B4 bind?
A: binds

Q: Does B5 bind?
A: no binding

Q: Does B6 bind?
A: binds

Q: Does B7 bind?
A: binds

Q: Does B8 bind?
A: binds

Q: Does B9 bind?
A: no binding

Q: Does B10 bind?
A: no binding

Biological target: T1, Cascade- (crRNA-free …)
Experiment: EMSA; detectable binding; EMSA: 20 mM Tris-HCl pH 8, 20 mM NaCl, 10 nM 32P probe, 30 min at 30 or 37 C, 6% native PAGE; loading 10 min at 30 C with crRNA (0.5 uM in Fig 3). Kd values are printed only in Fig 5A (not in the material)
Settings: protein: recombinant; tags: N-terminal 6His on Cse1 (CasA); copies: 1;2;6;1;1; label: 5'-32P

Q: Does B11 bind?
A: binds

Q: Does B12 bind?
A: binds

Q: Does B13 bind?
A: binds
